Laboratory results taken from patent publication US12031160B2, “Method for the production of glufosinate-ammonium” (ZHEJIANG UNIVERSITY OF TECHNOLOGY, priority 2018, dated 2024).

How the values were obtained:
[1] = substrate: CP(=O)(O)CCC(=O)C(=O)O; test: purified protein, by the assay type; conditions: other: PPO 2-10 mM, NADPH 1-5 mM, pH 7.4, 35° C., double-reciprocal plot
[2] = substrate: NC(=O)C1=CN([C@@H]2O[C@H](COP(=O)(O)OP(=O)(O)OC[C@H]3O[C@@H](n4cnc5c(N)ncnc54)[C@H](OP(=O)(O)O)[C@@H]3O)[C@@H](O)[C@H]2O)C=CC1; test: purified protein, by the assay type
[3] = substrate: CP(=O)(O)CCC(=O)C(=O)O; test: Kinetic parameters of purified mutant PPTGDH-F357G; type: biochemical, Pseudomonas moorei; conditions: other: PPO 2-10 mM, NADPH 1-5 mM, pH 7.4, 35° C., double-reciprocal plot
Procedure: (§1) 1. […] The mutant proteins were purified by Ni-NTA column(1.6×10 cm, Bio-Rad, the USA), and the specific operations were carried out as follows: (1)equilibrate a Ni-NTA column with 5 column volumes of a binding buffer(pH 8.0, 50 mM sodium phosphate buffer containing 0.3 M NaCl) until the baseline is steady; (2)load the sample with a flow rate of 1 mL/min with the amount of the loading sample of 25-40 mg/mL, thereby attaching the target protein to the Ni-NTA column; (3)wash the column with 6 column volumes of buffer A (pH 8.0, 50 mM sodium phosphate buffer containing 0.3 M NaCl and 30 mM imidazole) at a flow rate of 1 mL/min until the baseline is steady; (4)wash the column with buffer B (pH 8.0, 50 mM sodium phosphate buffer containing 0.3 M NaCl and 500 mM imidazole) at a flow rate of 1 mL/min, collect the target protein and dialyze overnight in a pH 7.5, 20 mM phosphate buffer, thereby obtaining the pure glufosinate-ammonium dehydrogenase; and (5)wash the Ni-NTA column with 5 column volumes of a binding buffer(pH 8.0, 50 mM sodium phosphate buffer containing 0.3 M NaCl) until the baseline is steady, and store the Ni-NTA column in 5 column volumes of ultrapure water containing 20% ethanol.
(§2) According to sequential mechanism in glufosinate-ammonium dehydrogenase's catalytic reaction, vmax, Km^A, Km^B can be calculated by a double-reciprocal plot, the results were shown in Table 4.

[4] = substrate: NC(=O)C1=CN([C@@H]2O[C@H](COP(=O)(O)OP(=O)(O)OC[C@H]3O[C@@H](n4cnc5c(N)ncnc54)[C@H](OP(=O)(O)O)[C@@H]3O)[C@@H](O)[C@H]2O)C=CC1; test: Kinetic parameters of purified mutant PPTGDH-F357G; type: biochemical, Pseudomonas moorei; conditions: other: PPO 2-10 mM, NADPH 1-5 mM, pH 7.4, 35° C., double-reciprocal plot
Procedure: as §1, §2

[5] = substrate: CP(=O)(O)CCC(=O)C(=O)O; test: Kinetic parameters of purified mutant PPTGDH-L107R-F188P; type: biochemical, Pseudomonas moorei; conditions: other: PPO 2-10 mM, NADPH 1-5 mM, pH 7.4, 35° C., double-reciprocal plot
Procedure: as §1, §2

[6] = substrate: NC(=O)C1=CN([C@@H]2O[C@H](COP(=O)(O)OP(=O)(O)OC[C@H]3O[C@@H](n4cnc5c(N)ncnc54)[C@H](OP(=O)(O)O)[C@@H]3O)[C@@H](O)[C@H]2O)C=CC1; test: as above; type: biochemical, Pseudomonas moorei; conditions: other: PPO 2-10 mM, NADPH 1-5 mM, pH 7.4, 35° C., double-reciprocal plot
Procedure: as §1, §2

[7] = substrate: CP(=O)(O)CCC(=O)C(=O)O; test: Kinetic parameters of purified mutant PPTGDH-L107R; type: biochemical, Pseudomonas moorei; conditions: other: PPO 2-10 mM, NADPH 1-5 mM, pH 7.4, 35° C., double-reciprocal plot
Procedure: as §1, §2

[8] = substrate: NC(=O)C1=CN([C@@H]2O[C@H](COP(=O)(O)OP(=O)(O)OC[C@H]3O[C@@H](n4cnc5c(N)ncnc54)[C@H](OP(=O)(O)O)[C@@H]3O)[C@@H](O)[C@H]2O)C=CC1; test: Kinetic parameters of purified mutant PPTGDH-L107R; type: biochemical, Pseudomonas moorei; conditions: other: PPO 2-10 mM, NADPH 1-5 mM, pH 7.4, 35° C., double-reciprocal plot
Procedure: as §1, §2

[9] = substrate: CP(=O)(O)CCC(=O)C(=O)O; test: Kinetic parameters of purified mutant PPTGDH-F188P; type: biochemical, Pseudomonas moorei; conditions: other: PPO 2-10 mM, NADPH 1-5 mM, pH 7.4, 35° C., double-reciprocal plot
Procedure: as §1, §2

[10] = substrate: NC(=O)C1=CN([C@@H]2O[C@H](COP(=O)(O)OP(=O)(O)OC[C@H]3O[C@@H](n4cnc5c(N)ncnc54)[C@H](OP(=O)(O)O)[C@@H]3O)[C@@H](O)[C@H]2O)C=CC1; test: Kinetic parameters of purified mutant PPTGDH-F188P; type: biochemical, Pseudomonas moorei; conditions: other: PPO 2-10 mM, NADPH 1-5 mM, pH 7.4, 35° C., double-reciprocal plot
Procedure: as §1, §2

[11] = substrate: CP(=O)(O)CCC(=O)C(=O)O; test: Kinetic parameters of purified mutant PPTGDH-L107R-F188P-G239K; type: biochemical, Pseudomonas moorei; conditions: other: PPO 2-10 mM, NADPH 1-5 mM, pH 7.4, 35° C., double-reciprocal plot
Procedure: as §1, §2

[12] = substrate: NC(=O)C1=CN([C@@H]2O[C@H](COP(=O)(O)OP(=O)(O)OC[C@H]3O[C@@H](n4cnc5c(N)ncnc54)[C@H](OP(=O)(O)O)[C@@H]3O)[C@@H](O)[C@H]2O)C=CC1; test: as above; type: biochemical, Pseudomonas moorei; conditions: other: PPO 2-10 mM, NADPH 1-5 mM, pH 7.4, 35° C., double-reciprocal plot
Procedure: as §1, §2

[13] = other: PPO 2-10 mM, NADPH 1-5 mM, pH 7.4, 35° C., double-reciprocal plot

B1: Pseudomonas moorei glufosinate-ammonium dehydrogenase E3 (PPTGDH, PPTGDHE3, WP_090325311.1), wild type, SEQ ID NO: 6 (Pseudomonas moorei) (protein)
chain: MIESVESFLARLKKRDPDQPEFHQAVEEVLRSLWPFLEANPRYLTSGILERICEPERAIVFRVSWVDDQGKVQVNRGFRIQMNSAIGPYKGGLRFHPSVNLGVLKFLAFEQTFKNSLTSLPMGGGKGGSDFDPKGKSDAEVMRFCQAFMSELYRHIGADVDVPAGDIGVGAREIGFLFGQYKRLSNQFTSVLTGKGPSYGGSLIRPEATGFGCVYFAEEMLKRRGETVEGKRVAISGSGNVAQYAARKVMDLGGKVISLSDSEGTLYCESGLTEAQWQAVLELKNVQRGRISELAGRFGLEFLAGQRPWGLSCDIALPCATQNELDAEAARALLRNGCTCVAEGANMPTTLEAVDLFIEAGILFAPGKASNAGGVAVSGLEMSQNAMRLLWTGGEVDSKLHAIMQSIHHACVHYGEENGQVNYVKGANIAGFVKVADAMLAQGVV
[1]
  Km: 3120 µM
  kcat: 47.51 ± 2.05 s⁻¹
  kcat/Km: 15220 M⁻¹ s⁻¹
[2]; [13]
  Km: 120 µM
[2]; other: pH 7.4, 35° C.
  kcat/Km: 395910 M⁻¹ s⁻¹

B2: Pseudomonas moorei glufosinate-ammonium dehydrogenase E3 (SEQ ID NO: 6) variant PPTGDH-L107R-F188P-G239K-F357G, SEQ ID NO: 9 (Pseudomonas moorei; … (protein)
chain: MIESVESFLARLKKRDPDQPEFHQAVEEVLRSLWPFLEANPRYLTSGILERICEPERAIVFRVSWVDDQGKVQVNRGFRIQMNSAIGPYKGGLRFHPSVNLGVLKFRAFEQTFKNSLTSLPMGGGKGGSDFDPKGKSDAEVMRFCQAFMSELYRHIGADVDVPAGDIGVGAREIGFLFGQYKRLSNQPTSVLTGKGPSYGGSLIRPEATGFGCVYFAEEMLKRRGETVEGKRVAISGSKNVAQYAARKVMDLGGKVISLSDSEGTLYCESGLTEAQWQAVLELKNVQRGRISELAGRFGLEFLAGQRPWGLSCDIALPCATQNELDAEAARALLRNGCTCVAEGANMPTTLEAVDLGIEAGILFAPGKASNAGGVAVSGLEMSQNAMRLLWTGGEVDSKLHAIMQSIHHACVHYGEENGQVNYVKGANIAGFVKVADAMLAQGVV
[1]
  Km: 2110 µM
  kcat: 712.6 ± 3.21 s⁻¹
  kcat/Km: 337730 M⁻¹ s⁻¹
[2]; [13]
  Km: 52 µM
  kcat/Km: 1.3703e+07 M⁻¹ s⁻¹

B3: Pseudomonas moorei glufosinate-ammonium dehydrogenase E3 (SEQ ID NO: 6) variant PPTGDH-F357G (Pseudomonas moorei; F357G) (protein)
chain: MIESVESFLARLKKRDPDQPEFHQAVEEVLRSLWPFLEANPRYLTSGILERICEPERAIVFRVSWVDDQGKVQVNRGFRIQMNSAIGPYKGGLRFHPSVNLGVLKFLAFEQTFKNSLTSLPMGGGKGGSDFDPKGKSDAEVMRFCQAFMSELYRHIGADVDVPAGDIGVGAREIGFLFGQYKRLSNQFTSVLTGKGPSYGGSLIRPEATGFGCVYFAEEMLKRRGETVEGKRVAISGSGNVAQYAARKVMDLGGKVISLSDSEGTLYCESGLTEAQWQAVLELKNVQRGRISELAGRFGLEFLAGQRPWGLSCDIALPCATQNELDAEAARALLRNGCTCVAEGANMPTTLEAVDLGIEAGILFAPGKASNAGGVAVSGLEMSQNAMRLLWTGGEVDSKLHAIMQSIHHACVHYGEENGQVNYVKGANIAGFVKVADAMLAQGVV
[3]
  Km: 3350 µM
  kcat: 56.31 ± 1.80 s⁻¹
  kcat/Km: 16808 M⁻¹ s⁻¹
[4]
  Km: 105 µM
  kcat/Km: 536000 M⁻¹ s⁻¹

B4: Pseudomonas moorei glufosinate-ammonium dehydrogenase E3 (SEQ ID NO: 6) variant PPTGDH-L107R-F188P (Pseudomonas moorei; F188P/L107R) (protein)
chain: MIESVESFLARLKKRDPDQPEFHQAVEEVLRSLWPFLEANPRYLTSGILERICEPERAIVFRVSWVDDQGKVQVNRGFRIQMNSAIGPYKGGLRFHPSVNLGVLKFRAFEQTFKNSLTSLPMGGGKGGSDFDPKGKSDAEVMRFCQAFMSELYRHIGADVDVPAGDIGVGAREIGFLFGQYKRLSNQPTSVLTGKGPSYGGSLIRPEATGFGCVYFAEEMLKRRGETVEGKRVAISGSGNVAQYAARKVMDLGGKVISLSDSEGTLYCESGLTEAQWQAVLELKNVQRGRISELAGRFGLEFLAGQRPWGLSCDIALPCATQNELDAEAARALLRNGCTCVAEGANMPTTLEAVDLFIEAGILFAPGKASNAGGVAVSGLEMSQNAMRLLWTGGEVDSKLHAIMQSIHHACVHYGEENGQVNYVKGANIAGFVKVADAMLAQGVV
[5]
  Km: 3220 µM
  kcat: 67.10 ± 2.81 s⁻¹
  kcat/Km: 20840 M⁻¹ s⁻¹
[6]
  Km: 112 µM
  kcat/Km: 599110 M⁻¹ s⁻¹

B5: Pseudomonas moorei glufosinate-ammonium dehydrogenase E3 (SEQ ID NO: 6) variant PPTGDH-L107R (Pseudomonas moorei; L107R) (protein)
chain: MIESVESFLARLKKRDPDQPEFHQAVEEVLRSLWPFLEANPRYLTSGILERICEPERAIVFRVSWVDDQGKVQVNRGFRIQMNSAIGPYKGGLRFHPSVNLGVLKFRAFEQTFKNSLTSLPMGGGKGGSDFDPKGKSDAEVMRFCQAFMSELYRHIGADVDVPAGDIGVGAREIGFLFGQYKRLSNQFTSVLTGKGPSYGGSLIRPEATGFGCVYFAEEMLKRRGETVEGKRVAISGSGNVAQYAARKVMDLGGKVISLSDSEGTLYCESGLTEAQWQAVLELKNVQRGRISELAGRFGLEFLAGQRPWGLSCDIALPCATQNELDAEAARALLRNGCTCVAEGANMPTTLEAVDLFIEAGILFAPGKASNAGGVAVSGLEMSQNAMRLLWTGGEVDSKLHAIMQSIHHACVHYGEENGQVNYVKGANIAGFVKVADAMLAQGVV
[7]
  Km: 2430 µM
  kcat: 42.02 ± 2.47 s⁻¹
  kcat/Km: 17290 M⁻¹ s⁻¹
[8]
  Km: 102 µM
  kcat/Km: 411960 M⁻¹ s⁻¹

B6: Pseudomonas moorei glufosinate-ammonium dehydrogenase E3 (SEQ ID NO: 6) variant PPTGDH-F188P (Pseudomonas moorei; F188P) (protein)
chain: MIESVESFLARLKKRDPDQPEFHQAVEEVLRSLWPFLEANPRYLTSGILERICEPERAIVFRVSWVDDQGKVQVNRGFRIQMNSAIGPYKGGLRFHPSVNLGVLKFLAFEQTFKNSLTSLPMGGGKGGSDFDPKGKSDAEVMRFCQAFMSELYRHIGADVDVPAGDIGVGAREIGFLFGQYKRLSNQPTSVLTGKGPSYGGSLIRPEATGFGCVYFAEEMLKRRGETVEGKRVAISGSGNVAQYAARKVMDLGGKVISLSDSEGTLYCESGLTEAQWQAVLELKNVQRGRISELAGRFGLEFLAGQRPWGLSCDIALPCATQNELDAEAARALLRNGCTCVAEGANMPTTLEAVDLFIEAGILFAPGKASNAGGVAVSGLEMSQNAMRLLWTGGEVDSKLHAIMQSIHHACVHYGEENGQVNYVKGANIAGFVKVADAMLAQGVV
[9]
  Km: 4160 µM
  kcat: 33.50 ± 1.51 s⁻¹
  kcat/Km: 8050 M⁻¹ s⁻¹
[10]
  Km: 140 µM
  kcat/Km: 239290 M⁻¹ s⁻¹

B7: Pseudomonas moorei glufosinate-ammonium dehydrogenase E3 (SEQ ID NO: 6) variant PPTGDH-L107R-F188P-G239K (Pseudomonas moorei; F188P/G239K/L107R) (protein)
chain: MIESVESFLARLKKRDPDQPEFHQAVEEVLRSLWPFLEANPRYLTSGILERICEPERAIVFRVSWVDDQGKVQVNRGFRIQMNSAIGPYKGGLRFHPSVNLGVLKFRAFEQTFKNSLTSLPMGGGKGGSDFDPKGKSDAEVMRFCQAFMSELYRHIGADVDVPAGDIGVGAREIGFLFGQYKRLSNQPTSVLTGKGPSYGGSLIRPEATGFGCVYFAEEMLKRRGETVEGKRVAISGSKNVAQYAARKVMDLGGKVISLSDSEGTLYCESGLTEAQWQAVLELKNVQRGRISELAGRFGLEFLAGQRPWGLSCDIALPCATQNELDAEAARALLRNGCTCVAEGANMPTTLEAVDLFIEAGILFAPGKASNAGGVAVSGLEMSQNAMRLLWTGGEVDSKLHAIMQSIHHACVHYGEENGQVNYVKGANIAGFVKVADAMLAQGVV
[11]
  Km: 2090 µM
  kcat: 607.5 ± 4.02 s⁻¹
  kcat/Km: 290670 M⁻¹ s⁻¹
[12]
  Km: 45 µM
  kcat/Km: 1.35e+07 M⁻¹ s⁻¹
